Positions count from the first letter of the chain named. One block for each binder: values may come before it.
Target: T1, recombinant human pIgR (hpIgR) (human, UniProt P01833 19-638, limits assumed)
T1 construct: probably the ECD
Experiment: ELISA, periplasmic VHH, BSA subtracted
Method: Initial Library Screening: After each panning round showing enrichment, 94 individual clones were expressed and tested in an off-phage initial screen for specific binding to mpIgR or hpIgR (respectively depending on the antigen used). Screening of monoclones in an off-phage format was performed by transforming the phagemid pool into a non-amber-suppressor strain of E. coli and picking random colonies. The VHH proteins were recovered in the periplasmic fraction by performing osmotic shock. Periplasmic fractions containing His-tagged nanobodies were tested for binding to hpIgR or mpIgR. Bound nanobody was detected with a polyclonal anti-alpaca VHH domain antibody. Each clone was also tested for non-specific binding to BSA in parallel. The ELISA values obtained on BSA were subtracted from the ELISA values obtained on the respective pIgR antigen.
Repeat Testing of Positive Hits: The hits identified in the initial screen of the phage pools were re-tested for binding to either hpIgR or mpIgR. Periplasmic fractions were prepared again by performing osmotic shock. Periplasmic fractions containing His-tagged nanobodies were tested for binding to mpIgR. In this assay, bound nanobody was detected with an anti-VHH antibody. Each clone was also tested for non-specific binding to BSA in parallel. The ELISA values obtained on BSA were subtracted from the ELISA values obtained on the respective pIgR antigen.

T1 sequence (P01833 19-638 limits assumed): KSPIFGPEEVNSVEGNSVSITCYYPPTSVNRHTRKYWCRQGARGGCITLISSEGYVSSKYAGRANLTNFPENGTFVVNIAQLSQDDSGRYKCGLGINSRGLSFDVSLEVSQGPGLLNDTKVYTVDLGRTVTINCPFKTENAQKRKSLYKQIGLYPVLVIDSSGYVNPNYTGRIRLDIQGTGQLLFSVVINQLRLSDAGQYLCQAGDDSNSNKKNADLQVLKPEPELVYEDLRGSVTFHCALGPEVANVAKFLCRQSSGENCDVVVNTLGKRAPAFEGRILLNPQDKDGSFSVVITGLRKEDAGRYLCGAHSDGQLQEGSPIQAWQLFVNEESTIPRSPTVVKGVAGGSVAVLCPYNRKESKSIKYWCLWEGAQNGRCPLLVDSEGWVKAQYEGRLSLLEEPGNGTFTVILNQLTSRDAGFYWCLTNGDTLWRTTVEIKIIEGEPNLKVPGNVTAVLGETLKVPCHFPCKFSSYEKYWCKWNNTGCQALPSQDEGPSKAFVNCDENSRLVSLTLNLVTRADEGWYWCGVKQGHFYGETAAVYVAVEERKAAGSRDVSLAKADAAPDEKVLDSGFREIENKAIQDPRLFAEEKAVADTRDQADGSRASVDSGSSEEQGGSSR

ELISA (OD): 1.95 OD
B1: 01A06R3LS His-tagged VHH (VHH)
VHH: EVQLVESGGGVVQAEDSLRLSCAASGLPFSSSRMGWFRQAPGKEREFVAAIGWSGRSTYKYYADSVKGRFTVSGDNAKKTLDLQMKDLKPEDTAVYYCAAHPDYYGDPRTSGAYRYWGQGTQVTVSS

ELISA (OD): 2.29 OD
B2: 01B07R3L His-tagged VHH (VHH)
VHH: B1 VHH with A40V, K60R, A63D, K79N, D87G, H101D, D103N, P108V, A113T, R115Q

ELISA (OD): 2.37 OD
B3: 01C03R2L His-tagged VHH (VHH)
VHH: EVQLVESGGGLVQAGGSLRLSCAASGRTLRSYIVGWFRQAPGKEREFVAAVTWSDGRRVTADPVKGRFTISRDNAKNTVYLQMDSLKPEDAAVYYCAVSHGGAYVESRAYEYWGQGTQVTVSS

ELISA (OD): 1.94 OD
B4: 01B08R2 His-tagged VHH (VHH)
VHH: EVQLVESGGRLVQAGGSLRLSCAASGLTRSDYAMGWFRQAPGKEREFVATLKWSEGSRFMYRAEDVKGRFTISSGAAKTTVWLDMDALNPEDTAVYYCAAGFNVGFVRRASEYNFWGQGTLVTVSS

ELISA (OD): 1.97 OD
B5: 03F01R3 His-tagged VHH (VHH)
VHH: QVQLVESGGGLVQAGESLRLSCAASGDVFDIGTMAWYRQPPGKQRELVASITMGGSTDVADSAKGRFTISRDNAKNTVYLHMDSLKPEDTAVYYCNAQFFWPKRHDYWGQGTQVTVSS

ELISA (OD): 1.82 OD
B6: 03D09R3 His-tagged VHH (VHH)
VHH: QVQLVESGGGLVQAGGSLRLSCAASGRTVSSVAMGWFRQAPGKEREFVATISWTGGSTYYADSVKGRFTISRDNAKNTAYLQMNSLKPEDTAVYYCAAGYPADPIALMTLRYEYDYWGQGTLVTVSS

ELISA (OD): 1.94 OD
B7: 01B02R2L His-tagged VHH (VHH)
VHH: EVQLVESGGGLVQAGGSLKLACAASGLTFSSYRMGWFRQAPGKEREFVAAIDWNGRGTYYRYYADSVKGRFTISRDNAKNTMCLQMNSLKPEDTAVYYSAIDSRTSIDPRTSGHYRYWGQGTLVTVSS

ELISA (OD): 2.07 OD
B8: 03D02R3 His-tagged VHH (VHH)
VHH: EVQLVESGGGLAQAGGSLRLSCTASGTISKIDVMAWYRQTPGNERELVARIFSNDVTHYVDSAKGRFTLSRAQDKNTVDLQMNSLEPDDAAVYYCNAQIWSDMRGRMDTYWGQGTLVTVSS

ELISA (OD): 1.92 OD
B9: 03G05R3 His-tagged VHH (VHH)
VHH: EVQLVESGGGLVQAGDSLRLSCAASGRALSFNTYAMAWFRQAPGKEREFVASITYNGGSTYYADSVKGRFTVTRDNGKNTVTLRMNSLKPDDTAVYYCASAQYWRSGTSFPANYWGQGTQVTVSS

ELISA (OD): 2.33 OD
B10: 01C04R3 His-tagged VHH (VHH)
VHH: B9 VHH with E1Q, N79D, Q120L

ELISA (OD): 1.92 OD
B11: 03G07R3 His-tagged VHH (VHH)
VHH: B9 VHH with A28T, N32D, T54D, Y61D, G77A, Q102R, W104Y, A112V

ELISA (OD): 0.5 OD
B12: 01D06R2 His-tagged VHH (VHH)
VHH: QVQLVESGGGLVQAGDSLRLSCAASGRTLSFDTYAMAWFRQAPGKEREFVASIDWNGVNTYYADSVKGRFTVTRDNTKNTVTLRMNSLKTDDTAVYYCAAAQYYRSGTSFPANSWGQGTQVTVSS

ELISA (OD): 1.83 OD
B13: 01F04R3 His-tagged VHH (VHH)
VHH: B9 VHH with E1Q, K67R, N76S, Q120L

ELISA (OD): 0.67 OD
B14: 01B07R2L His-tagged VHH (VHH)
VHH: EVQLVESGGGLVQAGGSLRLSCAASGRTFSSDAVGWFRQAPGKEREFVAHIHWSGDFTTYYYYGDFVKGRFTISRGTAKNTVYLQMNSLKPEDTAVYYCAAPKGAIGDPRSTREYDYWGQGTLVTVSS

ELISA (OD): 2.11 OD
B15: 01D08R3 His-tagged VHH (VHH)
VHH: QVQLVESGGGLVQAGDSLRLSCAASGRTSSLYNMGWFRQAPGQEREFVAAIHWGGGRTYYADSVKGRFTISRDNAKNTVYLQMNSLEPGDTANYYCAARRAPELLDDYKQKPEEIGAYHYWGQGTQVTVSS

ELISA (OD): 2.07 OD
B16: 03H01R3 His-tagged VHH (VHH)
VHH: B15 VHH with Q1E, D16G, L31I, A117T

ELISA (OD): 1.98 OD
B17: 01A02R3 His-tagged VHH (VHH)
VHH: EVQLVESGGGLVQSGGSLRLSCAASGRTFDQFTVGWFRQAPGKEREFVTAIRWSGSTTYRYYADSVKGRFTISRDNARNTVDLQMNSLKPEDSAVYYCAGQMSQWSDPRGDDYDSWGQGTLVTVSS

ELISA (OD): 2.12 OD
B18: 01B04R3L His-tagged VHH (VHH)
VHH: EVQLVESGGGLVQAGDSLRLSCAASGRTFTTYVMGWFRQAPGKEREFVATIAWSGSTNYKYYADSVKGRFTISRDNAKNTVYLRMNSLKPEDTAVYYCAASTVLTDPRRLNEYANWGQGTLVTVSS

ELISA (OD): 1.64 OD
B19: 01C09R3LS His-tagged VHH (VHH)
VHH: EVQLVESGGGLVQAGGSLRLSCAASGRTINTYVMGWFRQAPGKEREFVARIDWSGSSTDYADSVKGRFTISRDNAKNTVYLQMNSLKPEDTAVYYCAGSAYYSGYVTHRDFGSWGQGTQVTVSS

ELISA (OD): 0.62 OD
B20: 01F11R2 His-tagged VHH (VHH)
VHH: B19 VHH with I29L, S57T

ELISA (OD): 2.17 OD
B21: 01B12R3LS His-tagged VHH (VHH)
VHH: B19 VHH with T31G, N77T

ELISA (OD): 0.99 OD
B22: 01H11R3LS His-tagged VHH (VHH)
VHH: B19 VHH with E1Q, T31G, N77T, M83T

ELISA (OD): 1.96 OD
B23: 01G10R3LS His-tagged VHH (VHH)
VHH: B19 VHH with M34T

ELISA (OD): 2.07 OD
B24: 01D07R3LS His-tagged VHH (VHH)
VHH: B19 VHH with E1Q, Q119L

ELISA (OD): 1.91 OD
B25: 01B10R3LS His-tagged VHH (VHH)
VHH: B19 VHH with E1Q, N30Y, T31G

ELISA (OD): 2.35 OD
B26: 01F03R3LS His-tagged VHH (VHH)
VHH: B19 VHH with T31G, K43E, N77I, Q119L

ELISA (OD): 1.89 OD
B27: 01C05R3LS His-tagged VHH (VHH)
VHH: B19 VHH with Q119L

ELISA (OD): 2 OD
B28: 01G09R2 His-tagged VHH (VHH)
VHH: B19 VHH with V64A, Q119L

ELISA (OD): 1.97 OD
B29: 01E09R3LS His-tagged VHH (VHH)
VHH: B19 VHH with I70T, S85G, Q119L

ELISA (OD): 2.16 OD
B30: 01B04R2 His-tagged VHH (VHH)
VHH: EVQLVESGGGLVQAGGSLRLSCAASGRTFTSYTMGWFRQAPGKEREFVAAIKWNGGSTYYADSVKGRFTISRDNAKNTVYLQMNSLKPEDTAVYYCAADGDPYFSPTDGIVWHAPHQSEYDYWGQGTLVTVSS

ELISA (OD): 2.41 OD
B31: 01D05R2LS His-tagged VHH (VHH)
VHH: EVQLVESGGGLVQTGGSLRLSCAASGRTFSPYAMGWFRQAPGKEREFVAAIRWSGATTYKYVGDSVQGRFTISRDAAGNTVYLQMNSVKPEDTAVYYCAADRVPKDISIDPRNPKDWDYWGKGTLVTVSS

ELISA (OD): 1.17 OD
B32: 01H01R2LS His-tagged VHH (VHH)
VHH: B31 VHH with D64G, L125Q

ELISA (OD): 1.9 OD
B33: 01B06R2LS His-tagged VHH (VHH)
VHH: B31 VHH with E1Q

ELISA (OD): 2.27 OD
B34: 03D12R3 His-tagged VHH (VHH)
VHH: QVQLVESGGGLVQAGGSLRLSCAASGRTFSSYAMGWFRQAPGKEREFAAVITWNGGSTHYADSVKGRFTISRDNAKNTVYLQMNSLKPEDTAVYYCAADPMNSPYWGQGTQVTVSS

ELISA (OD): 2.26 OD
B35: 01C02R2 His-tagged VHH (VHH)
VHH: EVQLVESGGGLVQAGGSLRLSCAASGRSYAMGWFRQAPGKEREFAAAISWSGSRTYYADAVKGRFTISRDNAKNTVYLQMNSLKPEDTAVYYCAADPDGTVVASSGWTNSYEYGYWGQGTLVTVSS

ELISA (OD): 1.8 OD
B36: 01C02R3 His-tagged VHH (VHH)
VHH: QVQLVESGGGLVQAGGSLRLSCAASGLSFSSYTMGWFRQVPGKERELISAIHWSGGPTFYSNSVKGRFTISRDNAKDTVYLQMNSLKPEDTAVYYCTAEPVGSMISPDWTYWGQGTLVTVSS

ELISA (OD): 1.78 OD
B37: 01B12R2 His-tagged VHH (VHH)
VHH: EVQLVESGGGLVQAGGSLRLSCAASGRTFSSGIMGWFRQAPGKEREFVAAIEWSGGNTYKYYAESVKGRFAISRDNAKTTAYLQMGSLNPEDTALYYCAADESPSRYIDLRRPAPYHYWGQGTLVTVSS

Reference: patent US20220112276A1 (Janssen / Centocor, published 2022)
